According to patent publication US20120035244A1 (REGENTS OF THE UNIVERSITY OF MICHIGAN, published 2012):

B1: ERG, TMPRSS2:ERG gene fusion product (TMPRSS2 exon 1 fused to ERG1 exon 2) (other, human, UniProt P11308 33-479, looked up)
chain: MTASSSSDYGQTSKMSPRVPQQDWLSQPPARVTIKMECNPSQVNGSRNSPDECSVAKGGKMVGSPDTVGMNYGSYMEEKHMPPPNMTTNERRVIVPADPTLWSTDHVRQWLEWAVKEYGLPDVNILLFQNIDGKELCKMTKDDFQRLTPSYNADILLSHLHYLRETPLPHLTSDDVDKALQNSPRLMHARNTGGAAFIFPNTSVYPEATQRITTRPDLPYEPPRRSAWTGHGHPTPQSKAAQPSPSTVPKTEDQRPQLDPYQILGPTSSRLANPGSGQIQLWQFLLELLSDSSNSSCITWEGTNGEFKMTDPDEVARRWGERKSKPNMNYDKLSRALRYYYDKNIMTKVHGKRYAYKFDFHGIAQALQPHPPESSLYKYPSDLPYMGSYHAHPQKMNFVAPHPPALPVTSSSFFAAPNPYWNSPTGGIYPNTRLPTSHMPSHLGTYY
notes: Untagged fusion product: endogenous in VCaP cells and in ERG fusion-positive human prostate cancer tissues; no tag stated; also called TMPRSS-ERG gene fusion product; endogenous gene fusion product

Key:
ATR = ATR (human, UniProt Q13535 1-2644); assay: ERG immunoprecipitation from VCaP cells, Western blot (FIG. 8b)
Sequence of ATR (Q13535 whole entry): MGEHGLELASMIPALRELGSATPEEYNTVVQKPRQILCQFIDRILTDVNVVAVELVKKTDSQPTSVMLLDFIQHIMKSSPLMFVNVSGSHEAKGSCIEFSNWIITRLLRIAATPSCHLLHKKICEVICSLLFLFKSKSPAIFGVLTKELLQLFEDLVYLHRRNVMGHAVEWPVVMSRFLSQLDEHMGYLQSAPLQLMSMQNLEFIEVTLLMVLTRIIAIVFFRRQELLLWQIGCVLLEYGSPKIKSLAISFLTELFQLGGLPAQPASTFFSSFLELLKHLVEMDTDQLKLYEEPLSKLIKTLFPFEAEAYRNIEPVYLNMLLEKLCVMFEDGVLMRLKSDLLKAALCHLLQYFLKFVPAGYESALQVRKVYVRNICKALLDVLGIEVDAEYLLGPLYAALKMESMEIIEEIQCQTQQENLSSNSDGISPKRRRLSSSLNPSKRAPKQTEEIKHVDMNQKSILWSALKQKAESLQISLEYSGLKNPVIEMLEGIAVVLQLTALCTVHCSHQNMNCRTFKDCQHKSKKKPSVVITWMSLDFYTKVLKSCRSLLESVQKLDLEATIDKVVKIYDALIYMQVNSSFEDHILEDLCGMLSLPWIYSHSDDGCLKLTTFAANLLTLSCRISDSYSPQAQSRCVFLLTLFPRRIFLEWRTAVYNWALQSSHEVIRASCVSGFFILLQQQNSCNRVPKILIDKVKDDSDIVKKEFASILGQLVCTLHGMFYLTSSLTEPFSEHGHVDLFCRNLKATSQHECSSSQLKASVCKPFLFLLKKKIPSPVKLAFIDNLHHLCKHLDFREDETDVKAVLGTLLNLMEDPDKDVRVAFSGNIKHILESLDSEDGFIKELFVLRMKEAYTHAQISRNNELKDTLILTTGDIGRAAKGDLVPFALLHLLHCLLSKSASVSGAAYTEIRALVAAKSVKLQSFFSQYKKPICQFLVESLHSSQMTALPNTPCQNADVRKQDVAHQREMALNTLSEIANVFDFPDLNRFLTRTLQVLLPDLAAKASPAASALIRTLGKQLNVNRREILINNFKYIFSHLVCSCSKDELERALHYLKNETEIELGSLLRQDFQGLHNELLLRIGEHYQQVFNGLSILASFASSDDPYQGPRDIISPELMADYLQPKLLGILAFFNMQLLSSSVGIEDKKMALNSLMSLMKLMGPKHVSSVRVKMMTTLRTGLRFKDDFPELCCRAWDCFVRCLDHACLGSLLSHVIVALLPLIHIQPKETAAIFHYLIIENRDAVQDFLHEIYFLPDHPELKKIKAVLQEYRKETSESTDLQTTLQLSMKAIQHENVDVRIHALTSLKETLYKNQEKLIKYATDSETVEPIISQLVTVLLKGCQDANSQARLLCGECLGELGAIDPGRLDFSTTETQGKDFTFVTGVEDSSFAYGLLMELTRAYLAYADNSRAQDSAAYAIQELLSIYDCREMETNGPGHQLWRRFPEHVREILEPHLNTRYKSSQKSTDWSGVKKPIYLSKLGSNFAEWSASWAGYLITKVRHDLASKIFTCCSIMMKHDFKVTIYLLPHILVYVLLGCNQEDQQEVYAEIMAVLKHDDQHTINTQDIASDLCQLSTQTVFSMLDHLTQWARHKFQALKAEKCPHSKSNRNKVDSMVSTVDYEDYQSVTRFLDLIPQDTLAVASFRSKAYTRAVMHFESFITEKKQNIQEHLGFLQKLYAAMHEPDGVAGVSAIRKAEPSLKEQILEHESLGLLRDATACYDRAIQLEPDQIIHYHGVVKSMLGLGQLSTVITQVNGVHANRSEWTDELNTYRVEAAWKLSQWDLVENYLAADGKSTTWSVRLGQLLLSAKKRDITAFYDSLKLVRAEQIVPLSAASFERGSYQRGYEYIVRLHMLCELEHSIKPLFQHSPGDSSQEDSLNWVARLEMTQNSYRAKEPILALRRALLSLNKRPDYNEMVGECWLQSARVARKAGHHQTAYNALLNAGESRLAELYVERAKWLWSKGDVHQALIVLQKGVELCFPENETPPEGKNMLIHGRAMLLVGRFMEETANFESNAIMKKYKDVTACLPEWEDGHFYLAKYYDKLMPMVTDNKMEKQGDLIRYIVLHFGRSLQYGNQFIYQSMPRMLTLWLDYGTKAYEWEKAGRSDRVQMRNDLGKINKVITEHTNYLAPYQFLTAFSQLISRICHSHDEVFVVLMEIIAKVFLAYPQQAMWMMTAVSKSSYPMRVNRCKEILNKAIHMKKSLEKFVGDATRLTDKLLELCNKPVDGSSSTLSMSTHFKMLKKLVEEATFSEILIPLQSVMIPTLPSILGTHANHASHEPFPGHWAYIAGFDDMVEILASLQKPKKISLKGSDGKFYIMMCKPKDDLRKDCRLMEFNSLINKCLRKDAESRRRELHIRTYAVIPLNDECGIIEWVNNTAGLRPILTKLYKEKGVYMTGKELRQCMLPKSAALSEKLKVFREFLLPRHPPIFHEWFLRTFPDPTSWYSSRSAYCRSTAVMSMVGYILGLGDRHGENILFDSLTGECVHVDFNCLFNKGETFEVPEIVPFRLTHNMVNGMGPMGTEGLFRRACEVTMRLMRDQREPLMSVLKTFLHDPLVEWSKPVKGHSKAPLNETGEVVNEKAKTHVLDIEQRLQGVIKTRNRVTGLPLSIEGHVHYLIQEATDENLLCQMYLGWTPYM

[1] = target: B1; assay: ERG immunoprecipitation from VCaP cells, Western blot (FIG. 1b)

Row | binding result (ATR) | binding result [1] | Binder
1 | no binding |  | B1
2 |  | no binding | XRCC4 (other, human, UniProt Q13426 1-336, looked up) MERKISRIHLVSEPSITHFLQVSWEKTLESGFVITLTDGHSAWTGTVSESEISQEADDMAMEKGKYVGELRKALLSGAGPADVYTFNFSKESCYFFFEKNLKDVSFRLGSFNLEKVENPAEVIRELICYCLDTIAENQAKNEHLQKENERLLRDWNDVQGRFEKCVSAKEALETDLYKRFILVLNEKKTKIRSLHNKLLNAAQEREKDIKQEGETAICSEMTADRDPVYDESTDEESENQTDLSGLASAAVSKDDSIISSLDVTDIAPSRKRRQRMQRNLGTEPKMAPQENQLQEKENSRPDSSLPETSKKEHISAENMSLETLRNSSPEDLFDEI
